Reference: the supplement of paper PMC10567573

B1: TBC1D10A (parent)
chain: WCLVQICEKYLPGYYSEKLEAIQL
B2: RAB22A (parent)
chain: FVEDSFDPNINPTIGASFMTKTVQ

Variants of: B1
Test: protein stability index of a GFP-peptide fusion (GPS, HEK-293T) (PSI 1-6); higher = more stable
Conditions: c terminus: a fixed tail appended
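Also: lentivirally expressed fusions sorted by FACS into six bins by GFP to DsRed ratio, PSI derived from sequencing read proportions per bin multiplied by bin number.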

Row | Variant | protein stability index
1 | RCLVQICEKYLPGYYSEKLEAIQL | 2.22
2 | PCLVQICEKYLPGYYSEKLEAIQL | 1.93
3 | HCLVQICEKYLPGYYSEKLEAIQL | 2.83
4 | VCLVQICEKYLPGYYSEKLEAIQL | 2.6
5 | QCLVQICEKYLPGYYSEKLEAIQL | 1.07
6 | TCLVQICEKYLPGYYSEKLEAIQL | 3.45
7 | ACLVQICEKYLPGYYSEKLEAIQL | 3.88
8 | FCLVQICEKYLPGYYSEKLEAIQL | 2.61
9 | WFLVQICEKYLPGYYSEKLEAIQL | 1.81
10 | WGLVQICEKYLPGYYSEKLEAIQL | 2.79
11 | WNLVQICEKYLPGYYSEKLEAIQL | 3.07
12 | WELVQICEKYLPGYYSEKLEAIQL | 1.01

Variants of: B2
Test: as above
Conditions: c terminus: a fixed tail appended

Row | Variant | protein stability index
13 | FVEDSFDPNINPTIGASPMTKTVQ | 2.98
14 | FVEDSFDPNINPTIGASDMTKTVQ | 3.45
15 | FVEDSFDPNINPTIGASWMTKTVQ | 2.08
16 | FVEDSFDPNINPTIGASKMTKTVQ | 2.79
17 | FVEDSFDPNINPTIGASEMTKTVQ | 3.37
18 | FVEDSFDPNINPTIGASVMTKTVQ | 3.07
19 | FVEDSFDPNINPTIGASYMTKTVQ | 3.08
20 | FVEDSFDPNINPTIGASHMTKTVQ | 3.24
21 | FVEDSFDPNINPTIGASGMTKTVQ | 3.35
22 | FVEDSFDPNINPTIGASQMTKTVQ | 3.52
23 | FVEDSFDPNINPTIGASIMTKTVQ | 3.32
24 | FVEDSFDPNINPTIGASNMTKTVQ | 3.94
25 | FVEDSFDPNINPTIGASMMTKTVQ | 2.65
26 | FVEDSFDPNINPTIGASLMTKTVQ | 2.56
27 | FVEDSFDPNINPTIGASAMTKTVQ | 3.22
28 | FVEDSFDPNINPTIGASCMTKTVQ | 3.17
29 | FVEDSFDPNINPTIGASSMTKTVQ | 3.29
30 | FVEDSFDPNINPTIGASTMTKTVQ | 3.15
31 | FVEDSFDPNINPTIGASRMTKTVQ | 2.83
32 | FVEDSFDPNINPTIGAGFMTKTVQ | 2.31
33 | FVEDSFDPNINPTIGACFMTKTVQ | 2.04

Row | Variant | protein stability index
34 | FVEDSFDPNINPTIGARFMTKTVQ | 2.51
35 | FVEDSFDPNINPTIGAYFMTKTVQ | 1.82
36 | FVEDSFDPNINPTIGAPFMTKTVQ | 2.49
37 | FVEDSFDPNINPTIGAVFMTKTVQ | 1.74
38 | FVEDSFDPNINPTIGADFMTKTVQ | 2.53
39 | FVEDSFDPNINPTIGATFMTKTVQ | 2.17
40 | FVEDSFDPNINPTIGAMFMTKTVQ | 1.74
41 | FVEDSFDPNINPTIGAQFMTKTVQ | 2.6
42 | FVEDSFDPNINPTIGAIFMTKTVQ | 2.25
43 | FVEDSFDPNINPTIGAWFMTKTVQ | 1.96
44 | FVEDSFDPNINPTIGANFMTKTVQ | 2.28
45 | FVEDSFDPNINPTIGAEFMTKTVQ | 2.66
46 | FVEDSFDPNINPTIGALFMTKTVQ | 1.77
47 | FVEDSFDPNINPTIGAHFMTKTVQ | 2.35
48 | FVEDSFDPNINPTIGAKFMTKTVQ | 2.29
49 | FVEDSFDPNINPTIGAAFMTKTVQ | 2.18
50 | FVEDSFDPNINPTIGAFFMTKTVQ | 2.14
51 | FVEDSFDPNINPTIGASFMTKKVQ | 2.77
52 | FVEDSFDPNINPTIGASFMTKYVQ | 1.73
53 | FVEDSFDPNINPTIGASFMTKAVQ | 2.43
54 | FVEDSFDPNINPTIGASFMTKEVQ | 2.91

Row | Variant | protein stability index
55 | FVEDSFDPNINPTIGASFMTKRVQ | 2.34
56 | FVEDSFDPNINPTIGASFMTKDVQ | 2.85
57 | FVEDSFDPNINPTIGASFMTKGVQ | 2.25
58 | FVEDSFDPNINPTIGASFMTKVVQ | 2.2
59 | FVEDSFDPNINPTIGASFMTKMVQ | 2.11
60 | FVEDSFDPNINPTIGASFMTKFVQ | 2.02
61 | FVEDSFDPNINPTIGASFMTKQVQ | 2.45
62 | FVEDSFDPNINPTIGASFMTKHVQ | 2.09
63 | FVEDSFDPNINPTIGASFMTKPVQ | 2.75
64 | FVEDSFDPNINPTIGASFMTKIVQ | 1.6
65 | FVEDSFDPNINPTIGASFMTKSVQ | 2.26
66 | FVEDSFDPNINPTIGASFMTKWVQ | 1.23
67 | FVEDSFDPNINPTIGASFMTKNVQ | 2.25
68 | FVEDSFDPNINPTIGASFMTKCVQ | 2.35
69 | FVEDSFDPNINPTIGASFMTKLVQ | 1.78
70 | FVEDSFDPNINPTIGASFMTKTLQ | 2.93
71 | FVEDSFDPNINPTIGASFMTKTNQ | 2.44
72 | FVEDSFDPNINPTIGASFMTKTTQ | 2.78
73 | FVEDSFDPNINPTIGASFMTKTMQ | 1.98
74 | FVEDSFDPNINPTIGASFMTKTHQ | 2.5
75 | FVEDSFDPNINPTIGASFMTKTCQ | 2.37

Row | Variant | protein stability index
76 | FVEDSFDPNINPTIGASFMTKTYQ | 2.52
77 | FVEDSFDPNINPTIGASFMTKTFQ | 1.79
78 | FVEDSFDPNINPTIGASFMTKTEQ | 3.24
79 | FVEDSFDPNINPTIGASFMTKTKQ | 2.26
80 | FVEDSFDPNINPTIGASFMTKTGQ | 2.56
81 | FVEDSFDPNINPTIGASFMTKTSQ | 2.66
82 | FVEDSFDPNINPTIGASFMTKTAQ | 2.43
83 | FVEDSFDPNINPTIGASFMTKTRQ | 1.89
84 | FVEDSFDPNINPTIGASFMTKTQQ | 2.39
85 | FVEDSFDPNINPTIGASFMTKTPQ | 2.94
86 | FVEDSFDPNINPTIGASFMTKTWQ | 2.5
87 | FVEDSFDPNINPTIGASFMTKTDQ | 2.76
88 | FVEDSFDPNINPTIGASFMTKTIQ | 2.37
89 | FVEDSFDPNINPTIGASFMTKTVG | 2.22
90 | FVEDSFDPNINPTIGASFMTKTVK | 2.15
91 | FVEDSFDPNINPTIGASFMTKTVP | 2.45
92 | FVEDSFDPNINPTIGASFMTKTVR | 2.38
93 | FVEDSFDPNINPTIGASFMTKTVY | 2.98
94 | FVEDSFDPNINPTIGASFMTKTVN | 2.28
